From EP4775675A1

Tests used:
[1] = biological target: cynomolgus monkey BDCA-2 on cells (Jurkat-cynoBDCA-2 cells; cynomolgus monkey pDCs) (cynomolgus monkey); assay: flow cytometry on Jurkat-cynoBDCA-2 cells
[2] = biological target: human BDCA-2 on cells (Jurkat-hBDCA-2 cells; human pDCs; human PBMCs) (human) (UniProt Q8WTT0); assay: flow cytometry on Jurkat-hBDCA-2 cells
Chain of human BDCA-2 on cells (Jurkat-hBDCA-2 cells; human pDCs; human PBMCs) (human) (Q8WTT0 whole entry): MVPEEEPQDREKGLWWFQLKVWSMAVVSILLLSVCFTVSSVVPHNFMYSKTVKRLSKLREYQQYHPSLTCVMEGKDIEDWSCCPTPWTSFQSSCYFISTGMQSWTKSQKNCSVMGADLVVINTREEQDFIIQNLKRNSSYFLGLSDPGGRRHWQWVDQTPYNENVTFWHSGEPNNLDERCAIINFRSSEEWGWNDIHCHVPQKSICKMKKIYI

Chain of cynomolgus monkey BDCA-2 on cells (Jurkat-cynoBDCA-2 cells; cynomolgus monkey pDCs) (cynomolgus monkey) (chain, as listed by the source): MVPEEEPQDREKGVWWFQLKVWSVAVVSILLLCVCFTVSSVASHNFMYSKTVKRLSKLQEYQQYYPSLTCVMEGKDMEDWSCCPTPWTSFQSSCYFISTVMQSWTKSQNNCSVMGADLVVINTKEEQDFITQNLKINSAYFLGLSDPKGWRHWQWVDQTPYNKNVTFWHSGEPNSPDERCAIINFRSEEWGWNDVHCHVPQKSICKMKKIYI

MFI [1]: 67.3 | MFI [2]: 17.5
Substance: Isotype control (antibody)
